Measured values reported in patent US20090048164A1 (WALTER AND ELIZA HALL INSTITUTE OF MEDICAL RESEARCH, published 2009).
Like-named read-outs stand apart in the source and are kept apart here.

T1: Bcl-w
T1 chain: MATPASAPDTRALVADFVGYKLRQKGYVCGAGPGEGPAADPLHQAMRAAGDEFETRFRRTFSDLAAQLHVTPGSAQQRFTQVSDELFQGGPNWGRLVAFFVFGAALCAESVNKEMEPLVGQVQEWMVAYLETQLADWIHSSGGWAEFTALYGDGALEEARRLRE

B1: Bad BH3 L2A, phage-displayed (peptide)
peptide: NAWAAQRYGRELRRMSDEFVDSFKKG
notes: M13 phage display: FLAG-26mer-GGGT-g3(249-406)
B2: Bad BH3 V20A, phage-displayed (peptide)
peptide: NLWAAQRYGRELRRMSDEFADSFKKG
notes: as for B1
B3: Bid BH3 A13E, phage-displayed (peptide)
peptide: QEDIIRNIARHLEQVGDSMDRSIPPG
notes: as for B1
B4: Bad BH3 D21A, phage-displayed (peptide)
peptide: NLWAAQRYGRELRRMSDEFVASFKKG
notes: as for B1
B5: Bad BH3 wild type, phage-displayed (peptide)
peptide: NLWAAQRYGRELRRMSDEFVDSFKKG
notes: M13 phage display: FLAG-26mer-GGGT-g3(249-406); also called wtBad
B6: Bid BH3 R10A, phage-displayed (peptide)
peptide: QEDIIRNIAAHLAQVGDSMDRSIPPG
notes: as for B1
B7: Bid BH3 I5A, phage-displayed (peptide)
peptide: QEDIARNIARHLAQVGDSMDRSIPPG
notes: as for B1
B8: Bid BH3 R21A, phage-displayed (peptide)
peptide: QEDIIRNIARHLAQVGDSMDASIPPG
notes: as for B1
B9: Bid BH3 D20A, phage-displayed (peptide)
peptide: QEDIIRNIARHLAQVGDSMARSIPPG
notes: as for B1
B10: Bad BH3 Y8A, phage-displayed (peptide)
peptide: NLWAAQRAGRELRRMSDEFVDSFKKG
notes: as for B1
B11: Bid BH3 wild type, phage-displayed (peptide)
peptide: QEDIIRNIARHLAQVGDSMDRSIPPG
notes: M13 phage display: FLAG-26mer-GGGT-g3(249-406); also called wtBid
B12: Bid BH3 V15A, phage-displayed (peptide)
peptide: QEDIIRNIARHLAQAGDSMDRSIPPG
notes: as for B1
B13: Bad BH3 R7A, phage-displayed (peptide)
peptide: NLWAAQAYGRELRRMSDEFVDSFKKG
notes: as for B1
B14: Bid BH3 S22A, phage-displayed (peptide)
peptide: QEDIIRNIARHLAQVGDSMDRAIPPG
notes: as for B1
B15: Bid BH3 N7A, phage-displayed (peptide)
peptide: QEDIIRAIARHLAQVGDSMDRSIPPG
notes: as for B1
B16: Bad BH3 W3A, phage-displayed (peptide)
peptide: NLAAAQRYGRELRRMSDEFVDSFKKG
notes: as for B1
B17: Bid BH3 E2A, phage-displayed (peptide)
peptide: QADIIRNIARHLAQVGDSMDRSIPPG
notes: as for B1
B18: Bad BH3 R10A, phage-displayed (peptide)
peptide: NLWAAQRYGAELRRMSDEFVDSFKKG
notes: as for B1
B19: Bid BH3 R6A, phage-displayed (peptide)
peptide: QEDIIANIARHLAQVGDSMDRSIPPG
notes: as for B1
B20: Bad BH3 R13A, phage-displayed (peptide)
peptide: NLWAAQRYGRELARMSDEFVDSFKKG
notes: as for B1
B21: Bad BH3 Q6A, phage-displayed (peptide)
peptide: NLWAAARYGRELRRMSDEFVDSFKKG
notes: as for B1
B22: Bad BH3 G26E, phage-displayed (peptide)
peptide: NLWAAQRYGRELRRMSDEFVDSFKKE
notes: as for B1
B23: Bad BH3 M15A, phage-displayed (peptide)
peptide: NLWAAQRYGRELRRASDEFVDSFKKG
notes: as for B1
B24: Bad BH3 D17A, phage-displayed (peptide)
peptide: NLWAAQRYGRELRRMSAEFVDSFKKG
notes: as for B1
B25: Bad BH3 R14A, phage-displayed (peptide)
peptide: NLWAAQRYGRELRAMSDEFVDSFKKG
notes: as for B1
B26: Bid BH3 L12A, phage-displayed (peptide)
peptide: QEDIIRNIARHAAQVGDSMDRSIPPG
notes: as for B1
B27: Bad BH3 A4E, phage-displayed (peptide)
peptide: NLWEAQRYGRELRRMSDEFVDSFKKG
notes: as for B1
B28: Bid BH3 Q1A, phage-displayed (peptide)
peptide: AEDIIRNIARHLAQVGDSMDRSIPPG
notes: as for B1
B29: Bad BH3 F23A, phage-displayed (peptide)
peptide: NLWAAQRYGRELRRMSDEFVDSAKKG
notes: as for B1
B30: Bad BH3 E18A, phage-displayed (peptide)
peptide: NLWAAQRYGRELRRMSDAFVDSFKKG
notes: as for B1
B31: Bad BH3 A5E, phage-displayed (peptide)
peptide: NLWAEQRYGRELRRMSDEFVDSFKKG
notes: as for B1
B32: Bad BH3 K25A, phage-displayed (peptide)
peptide: NLWAAQRYGRELRRMSDEFVDSFKAG
notes: as for B1
B33: Bid BH3 S18A, phage-displayed (peptide)
peptide: QEDIIRNIARHLAQVGDAMDRSIPPG
notes: as for B1
B34: Bid BH3 P25A, phage-displayed (peptide)
peptide: QEDIIRNIARHLAQVGDSMDRSIPAG
notes: as for B1
B35: Bid BH3 I23A, phage-displayed (peptide)
peptide: QEDIIRNIARHLAQVGDSMDRSAPPG
notes: as for B1
B36: Bid BH3 I8A, phage-displayed (peptide)
peptide: QEDIIRNAARHLAQVGDSMDRSIPPG
notes: as for B1
B37: Bid BH3 D3A, phage-displayed (peptide)
peptide: QEAIIRNIARHLAQVGDSMDRSIPPG
notes: as for B1
B38: Bid BH3 Q14A, phage-displayed (peptide)
peptide: QEDIIRNIARHLAAVGDSMDRSIPPG
notes: as for B1
B39: Bid BH3 G26E, phage-displayed (peptide)
peptide: QEDIIRNIARHLAQVGDSMDRSIPPE
notes: as for B1
B40: Bad BH3 K24A, phage-displayed (peptide)
peptide: NLWAAQRYGRELRRMSDEFVDSFAKG
notes: as for B1
B41: Bid BH3 P24A, phage-displayed (peptide)
peptide: QEDIIRNIARHLAQVGDSMDRSIAPG
notes: as for B1
B42: Bad BH3 N1A, phage-displayed (peptide)
peptide: ALWAAQRYGRELRRMSDEFVDSFKKG
notes: as for B1
B43: Bid BH3 I4A, phage-displayed (peptide)
peptide: QEDAIRNIARHLAQVGDSMDRSIPPG
notes: as for B1
B44: Bad BH3 S22A, phage-displayed (peptide)
peptide: NLWAAQRYGRELRRMSDEFVDAFKKG
notes: as for B1
B45: Bid BH3 H11A, phage-displayed (peptide)
peptide: QEDIIRNIARALAQVGDSMDRSIPPG
notes: as for B1

Tests used:
Assay in all cases: competition phage ELISA
Bcl-w [1] = molecular target: T1, Bcl-w
Bcl-2 = molecular target: Bcl-2
Chain of Bcl-2 (chain, as listed by the source): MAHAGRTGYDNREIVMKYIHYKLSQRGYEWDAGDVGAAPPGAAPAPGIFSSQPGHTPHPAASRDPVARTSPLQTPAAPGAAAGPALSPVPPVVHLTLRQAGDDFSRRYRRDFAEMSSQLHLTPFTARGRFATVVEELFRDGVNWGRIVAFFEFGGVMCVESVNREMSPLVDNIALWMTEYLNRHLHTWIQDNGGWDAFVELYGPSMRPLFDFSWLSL

Bcl-w [2] = molecular target: T1, Bcl-w

| Binder | Fold/wt (Bcl-w [1]) | IC50 (Bcl-w [1]) | Fold/wt (Bcl-2) | IC50 (Bcl-2) | Fold/wt (Bcl-w [2]) | IC50 (Bcl-w [2]) |
| --- | --- | --- | --- | --- | --- | --- |
| B1 | 1 fold | 35 nM | 1 fold | 7 nM | – | – |
| B2 | 1 fold | 38 nM | 1 fold | 13 nM | – | – |
| B3 | – | – | – | – | 11 fold | 253 nM |
| B4 | 1 fold | 28 nM | 1 fold | 17 nM | – | – |
| B5 | 1 fold | 37 nM | 1 fold | 13 nM | – | – |
| B6 | – | – | – | – | 2 fold | 46 nM |
| B7 | – | – | – | – | 2 fold | 34 nM |
| B8 | – | – | – | – | 2 fold | 52 nM |
| B9 | – | – | – | – | 1 fold | 24 nM |
| B10 | 2 fold | 77 nM | 1 fold | 19 nM | – | – |
| B11 | – | – | – | – | 1 fold | 23 nM |
| B12 | – | – | – | – | 3 fold | 59 nM |
| B13 | 1 fold | 32 nM | 1 fold | 14 nM | – | – |
| B14 | – | – | – | – | 1 fold | 27 nM |
| B15 | – | – | – | – | 1 fold | 25 nM |
| B16 | 1 fold | 33 nM | 1 fold | 12 nM | – | – |
| B17 | – | – | – | – | 2 fold | 34 nM |
| B18 | 1 fold | 41 nM | 1 fold | 14 nM | – | – |
| B19 | – | – | – | – | 2 fold | 42 nM |
| B20 | 1 fold | 52 nM | 1 fold | 19 nM | – | – |
| B21 | 1 fold | 47 nM | 1 fold | 18 nM | – | – |
| B22 | 1 fold | 37 nM | 1 fold | 15 nM | – | – |
| B23 | 1 fold | 43 nM | 3 fold | 43 nM | – | – |

| Binder | Fold/wt (Bcl-w [1]) | IC50 (Bcl-w [1]) | Fold/wt (Bcl-2) | IC50 (Bcl-2) | Fold/wt (Bcl-w [2]) | IC50 (Bcl-w [2]) |
| --- | --- | --- | --- | --- | --- | --- |
| B24 | 3 fold | 128 nM | – | – | – | – |
| B25 | 2 fold | 86 nM | 5 fold | 57 nM | – | – |
| B26 | – | – | – | – | 25 fold | 553 nM |
| B27 | 1 fold | 46 nM | 1 fold | 10 nM | – | – |
| B28 | – | – | – | – | 1 fold | 29 nM |
| B29 | 2 fold | 83 nM | – | – | – | – |
| B30 | 1 fold | 55 nM | 2 fold | 29 nM | – | – |
| B31 | 4 fold | 152 nM | 2 fold | 26 nM | – | – |
| B32 | 1 fold | 46 nM | 1 fold | 13 nM | – | – |
| B33 | – | – | – | – | 1 fold | 31 nM |
| B34 | – | – | – | – | 1 fold | 26 nM |
| B35 | – | – | – | – | 1 fold | 18 nM |
| B36 | – | – | – | – | 8 fold | 182 nM |
| B37 | – | – | – | – | 1 fold | 34 nM |
| B38 | – | – | – | – | 1 fold | 25 nM |
| B39 | – | – | – | – | 1 fold | 25 nM |
| B40 | 1 fold | 54 nM | 1 fold | 14 nM | – | – |
| B41 | – | – | – | – | 1 fold | 25 nM |
| B42 | 1 fold | 47 nM | 1 fold | 10 nM | – | – |
| B43 | – | – | – | – | 1 fold | 23 nM |
| B44 | 2 fold | 77 nM | 1 fold | 19 nM | – | – |
| B45 | – | – | – | – | 1 fold | 17 nM |
